Test [1] addresses T1, macaque c-Met on macaque epithelial cell 4MBr-5 (macaque).
T1 construct: whole, on cells; also called 4MBr-5 cell
Description: flow cytometry on 4MBr-5 macaque epithelial cells.

For test [2], the target named is T2, Human c-Met-His (SinoBiological, product catalog No. 10692-H08H) (human, UniProt P08581 25-932).
T2 construct: Bought protein; also called human c-Met-His protein; c-Met-His protein; not shown: His tag
Description: competitive ELISA, coated human c-Met-His, blocking of HGFβ. As to the method:
(§1) After the plate was washed, an HRP-conjugated streptavidin (eBioscience, product catalog No. 18-4100-51) was added. The plate was incubated at 25° C. for 1 h and then washed 5 times, and a TMB substrate solution (TIANGEN, product catalog No. PA107) was added at 100 μL/well for color development. The light absorption signal values at the wavelength of 450 nm and the reference wavelength of 650 nm were measured. A curve (FIG. 2A) was fit, and the IC₅₀ values (Table 4) were calculated.
A curve (FIG. 2B) was fit based on the results, and the IC₅₀ values were calculated (Table 4).
(In an ELISA, binding on a coated surface is turned into a signal by an enzyme label.)

Test [3] deals with human c-Met on natural human tumor cell lines (H1993, MKN45, KP4, H441) (human, UniProt P08581 25-1390). Description: cell-based or functional assay.
The target of test [4] is T2, Human c-Met-His (SinoBiological, …). Description: competitive ELISA, coated human c-Met-His, blocking of biotin-HGF. As to the method:
as §1

T2 sequence (P08581 25-932 limits assumed): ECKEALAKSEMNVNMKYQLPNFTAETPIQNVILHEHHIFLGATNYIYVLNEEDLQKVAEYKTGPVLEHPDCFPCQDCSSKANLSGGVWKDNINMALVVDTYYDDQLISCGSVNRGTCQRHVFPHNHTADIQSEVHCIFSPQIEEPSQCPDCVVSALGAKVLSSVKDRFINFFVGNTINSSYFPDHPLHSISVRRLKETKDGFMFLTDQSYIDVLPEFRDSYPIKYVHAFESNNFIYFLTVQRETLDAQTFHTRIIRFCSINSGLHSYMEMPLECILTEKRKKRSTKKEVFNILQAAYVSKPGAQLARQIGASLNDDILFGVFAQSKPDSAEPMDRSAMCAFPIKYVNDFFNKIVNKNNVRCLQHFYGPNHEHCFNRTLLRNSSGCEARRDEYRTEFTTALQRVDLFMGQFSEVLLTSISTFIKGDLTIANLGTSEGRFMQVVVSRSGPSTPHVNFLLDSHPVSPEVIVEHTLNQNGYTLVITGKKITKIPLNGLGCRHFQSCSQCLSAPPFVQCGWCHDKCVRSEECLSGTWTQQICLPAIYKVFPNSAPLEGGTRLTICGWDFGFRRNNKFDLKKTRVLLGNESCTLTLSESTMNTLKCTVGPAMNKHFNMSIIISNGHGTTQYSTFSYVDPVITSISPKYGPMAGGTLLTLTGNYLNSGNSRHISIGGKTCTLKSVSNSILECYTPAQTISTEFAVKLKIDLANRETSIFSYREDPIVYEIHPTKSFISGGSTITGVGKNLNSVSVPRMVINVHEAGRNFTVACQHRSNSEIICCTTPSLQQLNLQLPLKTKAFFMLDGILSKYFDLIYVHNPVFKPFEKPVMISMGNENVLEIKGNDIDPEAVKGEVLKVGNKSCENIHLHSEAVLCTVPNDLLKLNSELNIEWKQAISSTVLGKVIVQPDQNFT
human c-Met on natural human tumor cell lines (H1993, MKN45, KP4, H441), sequence (P08581 25-1390): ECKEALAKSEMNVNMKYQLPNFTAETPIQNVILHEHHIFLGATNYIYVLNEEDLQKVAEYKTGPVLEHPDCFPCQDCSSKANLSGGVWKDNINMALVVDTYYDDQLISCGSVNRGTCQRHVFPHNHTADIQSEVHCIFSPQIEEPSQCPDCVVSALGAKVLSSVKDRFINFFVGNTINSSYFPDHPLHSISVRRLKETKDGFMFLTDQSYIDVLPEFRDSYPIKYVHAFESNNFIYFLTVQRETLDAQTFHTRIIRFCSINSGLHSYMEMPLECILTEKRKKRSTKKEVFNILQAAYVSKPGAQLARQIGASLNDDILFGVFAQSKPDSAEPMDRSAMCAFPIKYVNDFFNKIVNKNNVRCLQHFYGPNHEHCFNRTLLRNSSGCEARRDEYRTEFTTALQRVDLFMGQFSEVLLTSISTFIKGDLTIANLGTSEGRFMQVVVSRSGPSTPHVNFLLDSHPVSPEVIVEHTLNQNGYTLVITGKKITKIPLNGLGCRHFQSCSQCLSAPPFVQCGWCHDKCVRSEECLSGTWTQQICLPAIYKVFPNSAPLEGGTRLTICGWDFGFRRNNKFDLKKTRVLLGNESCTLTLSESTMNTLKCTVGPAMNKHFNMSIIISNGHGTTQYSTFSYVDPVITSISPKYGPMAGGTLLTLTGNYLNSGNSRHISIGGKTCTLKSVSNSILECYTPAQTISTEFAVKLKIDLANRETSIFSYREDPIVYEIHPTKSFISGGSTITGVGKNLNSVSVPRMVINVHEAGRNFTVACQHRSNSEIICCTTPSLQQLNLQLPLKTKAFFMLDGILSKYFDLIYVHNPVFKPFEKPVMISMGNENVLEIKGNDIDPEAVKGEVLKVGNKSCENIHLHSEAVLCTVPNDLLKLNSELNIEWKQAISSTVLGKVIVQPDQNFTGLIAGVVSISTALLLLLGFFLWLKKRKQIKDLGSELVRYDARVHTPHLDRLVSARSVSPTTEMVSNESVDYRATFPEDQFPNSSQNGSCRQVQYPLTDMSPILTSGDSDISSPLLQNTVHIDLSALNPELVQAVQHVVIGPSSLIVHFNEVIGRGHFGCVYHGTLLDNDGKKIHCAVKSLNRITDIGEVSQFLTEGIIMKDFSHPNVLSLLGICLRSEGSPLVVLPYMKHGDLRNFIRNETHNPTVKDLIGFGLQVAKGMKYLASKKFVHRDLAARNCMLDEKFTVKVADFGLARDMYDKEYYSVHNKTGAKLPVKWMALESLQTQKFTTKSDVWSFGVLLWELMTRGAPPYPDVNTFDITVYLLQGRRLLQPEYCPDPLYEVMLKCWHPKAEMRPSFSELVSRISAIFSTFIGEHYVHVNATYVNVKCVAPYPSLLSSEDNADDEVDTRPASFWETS

B1: 1B-1C7-Fc (antibody, human IgG1, V domains shown)
VH: QVQLVESGGGLVQPGGSLRLSCAASGYSYSANCVGWFYQAPGKEREGVAAINTGGETATYADFVKGRFTISQDYAKNTVYLQMNSLKSEDTGMYYCAAVGTRKYWDECSLSQHAYKNWGQGTLVTVSS
notes: also called anti-human c-Met VHH-Fc chimeric antibody 1B-1C7-Fc
Consider B1, for which, in test [1], the EC50 was 0.071 nM.

B2: 1B-1B6-Fc (antibody, human IgG1, V domains shown)
VH: QVQLVESGGDSVQAGGSLRLSCAASAHAYSSGCMGWFRQAPGKGREGVATIYTRNDFTYYSDSVKGRFTISRDDAKNTVYLQVNSLKAEDTAMYYCAAGSPFRYAGAWNVCGLKEEDYNYWGQGTLVTVSS
notes: also called anti-human c-Met VHH-Fc chimeric antibody 1B-1B6-Fc
In the case of B2, in test [1], the EC50 came to 0.682 nM. Compared with the last molecule, the EC50 is about 9.6-fold higher.

B3: 1B-1B2-Fc (antibody, human IgG1, V domains shown)
VH: EVQLVESGGGSVQAGGSLRLSCTASGFTFDMGWYRQAPGDECELVSSISSDGNSDYLDSVKGRFTISQDNAKNTVYLQMNSLKPEDTAVYYCAANGAGHLVLRPLCGSNAVDAWGQGTLVTVSS
notes: also called anti-human c-Met VHH-Fc chimeric antibody 1B-1B2-Fc
Regarding B3, the midpoint of the response in test [1], the EC50, lay at 0.418 nM. This EC50 is about 1.6-fold lower than that of the molecule before.

B4: 1B-1A8-Fc (antibody, human IgG1, V domains shown)
VH: EVQLVESGGGLVQPGGSLRLSCVASGFTFKSYAMDWVRQAPGKGLEWIAGINSAGSPSYEASVKGRFTISRDNAENTLYLQLNSLKTEDTAMYYCTKCRDFRSPYCRPGQGTLVTVSS
notes: also called anti-human c-Met VHH-Fc chimeric antibody 1B-1A8-Fc
In test [2], B4 came in with an IC50 of 3.56 nM and a Maximum blocking rate of 75%. For the same molecule, it took 0.471 nM to reach a half-maximal effect in test [1] (EC50). Besides, in test [3], the “Phosphorylation inhibition IC50 (nM), H441 cells, Phospho-c-Met (Tyr1234/1235) AlphaLISA” value was determined as 0.85 nM and the “Phosphorylation inhibition, Maximum inhibition rate, H441 cells” value came out at 90%. In test [4], this molecule displayed an IC50 of 3.14 nM and a Maximum blocking rate of 63%.

B5: 3B-1C7-Fc (antibody, human IgG1, V domains shown)
VH: QVQLVESGGDSVQAGGSLRLSCIASGFTFDGTTMGWYRQAPGDECELVSDISSDGNTYYSDSVKGRFTISQGNAKNTVYLQMNSLTPEDTAVYYCAAAEFRLLLRPLCRQDDYGYWGQGTLVTVSS
notes: also called anti-human c-Met VHH-Fc chimeric antibody 3B-1C7-Fc
For the molecule B5, the response in test [1] was half-maximal at 0.284 nM (EC50).

B6: 1B-3B11-Fc (antibody, human IgG1, V domains shown)
VH: QVQLVESGGGSVQAGGSLRLSCVVSGYTYSSVAWFRQTPGKEREGVAVINPGGDNTDYTYAVKGRFTISRDSAKSTVFLQMNNLESEDTAMYYCAAGRTFGGTWMDRNKWKYWGQGTLVTVSS
notes: Expressed in CHO; also called anti-human c-Met VHH-Fc chimeric antibody 1B-3B11-Fc
Regarding B6, the EC50 in test [1] amounted to 0.736 nM.

A word on the EC50: it is the concentration at which the effect is half-maximal. The IC50 is the point on the concentration scale where inhibition reaches its midpoint. A higher IC50 goes with weaker potency.

These data come from patent US20260146094A1 (CHIA TAI TIANQING PHARMACEUTICAL GROUP, published 2026).
